Measured values as given in patent publication US20080064631A1 (published 2008).

T1: proteinase 3 and neutrophil elastase (PR1) peptide on HLA-A*02:01 (human)
T1 peptide: VLQELNVTV


Molecular target: T1, proteinase 3 and neutrophil elastase …
Test: multimer staining
Protocol: Briefly, from PBMC that were derived from a healthy HLA-A2+ donor, the inventor elicited bulk PR1-CTL cell lines after 4 to 6 weeks of weekly stimulations with the PR1 peptide+low dose IL-2 and IL-7 in vitro, as outlined in FIG. 1. These CTL were subsequently placed into limiting dilution culture and after an additional 14 to 20 days. The cells were expanded with anti-CD3/anti-CD28 beads+IL-2+feeder cells+IL-15 to sufficient numbers and were then tested. The PR1-CTLs were stained with PR1-CTL tetramer to confirm specificity (FIG. 2). Unique cDNA sequences from the CDR3-α and CDR3-β regions from two different PR1-specific CTL clones that were derived from an HLA-A2+ healthy individual were obtained. The inventor reported that one PR1-CTL clone (F4) bears a relatively high avidity TCR for the PR1/HLA-A2 ligand, while the other CTL clone (B12) bears a relatively low avidity TCR. These conclusions are supported with PR1/HLA-A2 tetramer binding data and with cytotoxicity assays that show F4 to have a higher tetramer staining fluorescence intensity and a lower threshold of activation than the B12 clone, respectively. TCR-αβ CDR3 nucleic acid sequence data is provided showing clonality at the molecular level.

Binder	binding result
Low avidity PR1-CTL clone B12 TCR (TCR, V domains shown) Valpha: AQSVTQPDIHITVSEGASLELRCNYSYGATPYLFWYVQSPGQGLQLLLKYFSGDTLVQGIKGFEAEFKRSQSSFNLRKPSVHWSDAAEYFCAVGGGARLMFGDGTQLVVKP Vbeta: KAGVTQTPRYLIKTRGQQVTLSCSPISGHRSVSWYQQTPGQGLQFLSEYFSETQRNKGNFPGRFSGRQFSNPRSEMNVSTLELGDSALYLCASSGEAFYEQYFGPGTRLTVT	recognises
High avidity PR1-CTL clone F4 TCR (TCR, V domains shown) Valpha: GQNIDQPTEMTATEGAIVQINCTYQTSGFNGLFWYQQHAGEAPTFLSYNVLDGLEEKGRFSSFLSRSKGYSYLLLKELQMKDSASYLCAVSRDSGNTPLVFGKGTRLSVIA Vbeta: DSGVTQTPKHLITATGQRVTLRCSPRSGDLSVYWYQQSLDQGLQFLIQYYNGEERAKGNILERFSAQQFPDLHSELNLSSLELGDSALYFCASSPSGTGNIQYFGAGTRLSVL	recognises
